Assay results published in patent US20180021429A1 (PHARMA FOODS INTERNATIONAL, published 2018).
Where two headings read alike, the source gives them in different places.

How the values were obtained:
[1] = biological target: T1, human FSTL1 (construct not stated) (human, UniProt Q12841 21-308); experiment: BLI (BLItz), biotinylated antigen 5 µg/ml on streptavidin sensor, antibody 0 to 40 ug/ml
T1 construct: also called human FSTL1 antigen; FSTL1 (R&D Systems, Inc. Cat#1694-FN-050)
T1 sequence: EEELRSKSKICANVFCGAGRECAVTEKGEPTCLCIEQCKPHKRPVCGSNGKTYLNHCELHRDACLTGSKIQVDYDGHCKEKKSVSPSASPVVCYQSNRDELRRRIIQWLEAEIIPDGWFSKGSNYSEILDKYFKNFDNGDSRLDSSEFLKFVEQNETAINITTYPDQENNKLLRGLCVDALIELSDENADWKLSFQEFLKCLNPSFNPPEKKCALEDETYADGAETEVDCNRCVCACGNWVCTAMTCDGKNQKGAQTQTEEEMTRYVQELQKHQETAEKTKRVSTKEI
Protocol: The binding activity of the obtained purified antibody against FSTL1 was measured by use of the BLI method (BLItz, Pall Corp., 45-5000). The antigen was biotinylated using EZ-Link NHS-PEG4-Biotin (Thermo Fisher Scientific Inc., 21329). Streptavidin Tray (Pall Corp., 18-5019) was used as a sensor chip for the BLI method. The sensor chip was hydrated with PBS (Wako Pure Chemical Industries, Ltd., 166-23555) for 10 minutes or longer. 5 μg/ml of the biotinylated antigen was immobilized onto the hydrated sensor chip for 300 seconds. The antibody was adjusted to 40, 20, 10, 5, 2.5, or 0 ug/ml and reacted therewith for 120 seconds, and dissociation was measured for 300 seconds. When the antibody concentration of 0 ug/ml was used as a reference, the KD value was calculated.

[2] = biological target: T1, human FSTL1 (construct not stated); experiment: SPR (Biacore T-200), antibody on Human Antibody Capture Kit, human FSTL1 0 to 20 µg/ml
Protocol: (§1) Nine IgG1-type humanized antibodies of #6-55 were immobilized onto Sensor Chip CM5 (GE Healthcare Japan Corp., BR-1005-30) using Human Antibody Capture Kit (GE Healthcare Japan Corp., BR-1008-38), and their affinity for human FSTL1 was calculated using Biacore T-200 (GE Healthcare Japan Corp.). […] Among the 9 IgG1-type humanized antibodies of #6-55, a clone composed of a combination “H(2)-L(1)” having a […] KD value was selected as a lead antibody.

[3] = biological target: T1, human FSTL1 (construct not stated); experiment: as above; remark: listed apart in the source
Protocol: as §1

[4] = biological target: T1, human FSTL1 (construct not stated); experiment: as above; remark: listed apart in the source
Protocol: as §1

[5] = biological target: T1, human FSTL1 (construct not stated); experiment: as above; remark: listed apart in the source
Protocol: as §1

[6] = biological target: T2, His-tagged mouse FSTL1 (amino acid sequence of mouse FSTL1 used in Examples, SEQ ID NO: 72) (mouse, UniProt Q62356 19-306); experiment: ELISA, mouse FSTL1 coated (FIG. 1B)
T2 sequence: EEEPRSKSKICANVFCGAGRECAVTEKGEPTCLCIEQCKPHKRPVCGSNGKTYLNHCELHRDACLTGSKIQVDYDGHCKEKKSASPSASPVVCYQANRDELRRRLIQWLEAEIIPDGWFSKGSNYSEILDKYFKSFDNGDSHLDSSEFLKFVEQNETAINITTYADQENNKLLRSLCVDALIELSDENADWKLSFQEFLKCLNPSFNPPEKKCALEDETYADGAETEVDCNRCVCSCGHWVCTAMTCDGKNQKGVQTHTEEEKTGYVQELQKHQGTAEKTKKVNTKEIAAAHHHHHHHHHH

[7] = biological target: T1, human FSTL1 (construct not stated); experiment: SPR (Biacore T-200), captured antibody, human FSTL1 10 µg/ml
Protocol: (§2) The mouse chimeric antibodies were immobilized onto Sensor Chip CM5 (GE Healthcare Japan Corp., BR-1005-30) using Mouse Antibody Capture Kit (GE Healthcare Japan Corp., BR-1008-38), and their affinity for human FSTL1 was calculated using Biacore T-200 (GE Healthcare Japan Corp.).

[8] = biological target: T1, human FSTL1 (construct not stated); experiment: as above; remark: listed apart in the source
Protocol: as §2
(§3) First, the exhaustive activity comparison of the obtained antibodies was conducted with the human FSTL1 concentration fixed to 10 μg/ml (Table 33-1, FIG. 28).

[9] = biological target: T1, human FSTL1 (construct not stated); experiment: as above; remark: listed apart in the source
Protocol: as §2, §3

[10] = biological target: T1, human FSTL1 (construct not stated); experiment: as above; remark: listed apart in the source
Protocol: as §2, §3

[11] = biological target: T2, His-tagged mouse FSTL1 (amino acid …); experiment: ELISA, mouse FSTL1 coated (FIG. 3B)

Binder	Kd [2] [nM]	Kd [3] [nM]	Kd [4] [nM]	Kd [5] [nM]	other results
optimized humanized antibody (humanized #6-55 H(2)-L(1), human IgG4 H chain constant region, λ L chain constant region) (antibody, Expressed in ExpiCHO) heavy: not shown light: SYELTQPPSVSVSPGQTARITCSGGGNNYGWYQQKPGQAPVTVIYYNDNRPSGIPERFSGSNSGSTTTLTISGVQAEDEADYYCGSWDSNTDSGIFGGGTKLTVLGQPKAAPSVTLFPPSSEELQANKATLVCLISDFYPGAVTVAWKADSSPVKAGVETTTPSKQSNNKYAASSYLSLTPEQWKSHRSYSCQVTHEGSTVEKTVAPTECS					Kd [1]: 10.9 nM
humanized #6-55 antibody H(1)-L(1) (IgG1 type) (antibody, V domains shown, Human IgG1 constant region; expressed in HEK293 with a chicken antibody leader; also called h#6-55 H(1)-L(1)) VH: not shown VL: SYELTQPPSVSVSPGQTARITCSGGGNNYGWYQQKPGQAPVTVIYYNDNRPSGIPERFSGSNSGSTTTLTISGVQAEDEADYYCGSWDSNTDSGIFGGGTKLTVLG	35.2	35.2	35.2	35.2	
humanized #6-55 antibody H(1)-L(3) (IgG1 type) (antibody, V domains shown, Human IgG1 constant region; expressed in HEK293; also called h#6-55 H(1)-L(3)) VH: not shown VL: SYELTQPPSVSVSPGQTARITCSGGGNNYGWYQQKPGQAPVTVIYYNDNRPSGIPERFSGSNSGNTATLTISGVQAEDEADYYCGSWDSNTDSGIFGGGTKLTVLG	26.8	26.8	26.8	26.8	
humanized #6-55 antibody H(2)-L(2) (IgG1 type) (antibody, V domains shown, Human IgG1 constant region; expressed in HEK293; also called h#6-55 H(2)-L(2)) VH: EVQLLESGGGLVQPGGSLRLSCAASGFTFSSVTMQWVRQAPGKGLEFVSSVCSGSSTYYAPAVKGRFTISRDNSKNTVYLQMNSLRAEDTAVYYCAKIAGRARWSCTSAAYNIDAWGQGTLVTVSS VL: SYELTQPPSVSVSPGQTARITCSGGGNNYGWYQQKPGQAPVTVIYYNDNRPSGIPERFSGSTSGSTTTLTISGVQAEDEADYYCGSWDSNTDSGIFGGGTKLTVLG	11.3	11.3	11.3	11.3	
humanized #6-55 antibody H(2)-L(3) (IgG1 type) (antibody, V domains shown, Human IgG1 constant region; expressed in HEK293; also called h#6-55 H(2)-L(3)) VH: EVQLLESGGGLVQPGGSLRLSCAASGFTFSSVTMQWVRQAPGKGLEFVSSVCSGSSTYYAPAVKGRFTISRDNSKNTVYLQMNSLRAEDTAVYYCAKIAGRARWSCTSAAYNIDAWGQGTLVTVSS VL: SYELTQPPSVSVSPGQTARITCSGGGNNYGWYQQKPGQAPVTVIYYNDNRPSGIPERFSGSNSGNTATLTISGVQAEDEADYYCGSWDSNTDSGIFGGGTKLTVLG	45	45	45	45	
anti-FSTL1 antibody clone #7-34 (chicken-mouse chimeric antibody) (antibody, mouse IgG1, kappa, V domains shown) VH: AVTLDESGGGLQTPGGGLSLVCKASGFTFSSVTMQWVRQAPGKGLEWVASICSGSSTYYGPAVKGRATISRDNGQNTVRLQLNNLRAEDTATYYCAKIVGRGRWSCTSAAYNIDAWGHGTEVIVSS VL: ASTQPSSVSANPGETVKITCSGGGNNYGWYQQKSPGSAPVTVIYYNNNRPSNIPSRFSGSTSGSTSTLTITGVQAEDEAVYYCGSYEGSTDSGIFGAGTTLTVLG					binding result [6]: binds; Binding amount (RU) [7]: 14.2 RU; Dissociation amount (RU) [7]: 2.5 RU; Binding amount (RU) [8]: 14.2 RU; Dissociation amount (RU) [8]: 2.5 RU; Binding amount (RU) [9]: 14.2 RU; Dissociation amount (RU) [9]: 2.5 RU; Binding amount (RU) [10]: 14.2 RU; Dissociation amount (RU) [10]: 2.5 RU
anti-FSTL1 antibody clone #10 (chicken-mouse chimeric antibody) (antibody, mouse IgG1, kappa, V domains shown) VH: AVTLDESGGGLQTPGGALSLVCKASGFFFFRIYDMGWVRQAPGKGLEWVAGIDDYGRYTGYGSAVKGRATISRDNGQSTVRLQLNNLRAEDTGTYYCARGAGTGCNSAGCGAYAGSIDAWGHGTEVIVSS VL: ASTQPSSVSANPGETVKLTCSGGGSRYGWYQQKSPGSAPVTVIYYNDKRPSDIPSRFSGSKSGSTATLTITGVQAEDEAVYFCGGYDGSRDAGIFGAGTTLTVLG					binding result [11]: binds; Binding amount (RU) [7]: 11.7 RU; Dissociation amount (RU) [7]: 6 RU; Binding amount (RU) [8]: 11.7 RU; Dissociation amount (RU) [8]: 6 RU; Binding amount (RU) [9]: 11.7 RU; Dissociation amount (RU) [9]: 6 RU; Binding amount (RU) [10]: 11.7 RU; Dissociation amount (RU) [10]: 6 RU
anti-FSTL1 antibody clone #8-4 (chicken-mouse chimeric antibody) (antibody, mouse IgG1, kappa, V domains shown) VH: AVTLDESGGGLQTPGGGLSLVCKGSGFTLSSFNMFWVRQAPGKGLEWVAGVGKDGGTAYGAAVDGRATISRDSGQSTVRLQLNNLRAEDTGTYFCAKAAGGCSYSWCGAYVGDLDAWGHGTEVIVSS VL: ASSQPSSVSANPGETVKITCSGGSGYYYGWYQQKSPGSAPVTVIYNNDNKPSDIPSRFSGSKSGSTGTLTITGVQVEDEAVYFCGGYDNSGTGIFGAGTTLTVLG					binding result [11]: no binding (tested: antibody diluted from 100 ng/ml); Binding amount (RU) [7]: 11.6 RU; Dissociation amount (RU) [7]: 6.2 RU; Binding amount (RU) [8]: 11.6 RU; Dissociation amount (RU) [8]: 6.2 RU; Binding amount (RU) [9]: 11.6 RU; Dissociation amount (RU) [9]: 6.2 RU; Binding amount (RU) [10]: 11.6 RU; Dissociation amount (RU) [10]: 6.2 RU
humanized #6-55 antibody H(2)-L(1) (IgG1 type) (antibody, Human IgG1 constant region; expressed in HEK293; lead antibody; also called h#6-55 H(2)-L(1); humanized #6-55 H chain (2)+L chain (1)) heavy: not shown light: SYELTQPPSVSVSPGQTARITCSGGGNNYGWYQQKPGQAPVTVIYYNDNRPSGIPERFSGSNSGSTTTLTISGVQAEDEADYYCGSWDSNTDSGIFGGGTKLTVLGTVAAPSVFIFPPSDEQLKSGTASVVCLLNNFYPREAKVQWKVDNALQSGNSQESVTEQDSKDSTYSLSSTLTLSKADYEKHKVYACEVTHQGLSSPVTKSFNRGEC	60.5	60.5	60.5	60.5	

Second part, led by results:

Kd [2] [nM]	Kd [3] [nM]	Kd [4] [nM]	Kd [5] [nM]	Binder	other results
24.9	24.9	24.9	24.9	humanized #6-55 antibody H(3)-L(3) (IgG1 type) (antibody, V domains shown, Human IgG1 constant region; expressed in HEK293; also called h#6-55 H(3)-L(3)) VH: EVQLLESGGGLVQPGGSLRLSCAASGFTFSSVTMQWVRQAPGKGLEFVASVCSGSSTYYAPAVKGRVTISRDNSKNTVYLQMNSLRAEDTAVYYCAKIAGRARWSCTSAAYNIDAWGQGTLVTVSS VL: SYELTQPPSVSVSPGQTARITCSGGGNNYGWYQQKPGQAPVTVIYYNDNRPSGIPERFSGSNSGNTATLTISGVQAEDEADYYCGSWDSNTDSGIFGGGTKLTVLG	
25	25	25	25	humanized #6-55 antibody H(1)-L(2) (IgG1 type) (antibody, V domains shown, Human IgG1 constant region; expressed in HEK293; also called h#6-55 H(1)-L(2)) VH: not shown VL: SYELTQPPSVSVSPGQTARITCSGGGNNYGWYQQKPGQAPVTVIYYNDNRPSGIPERFSGSTSGSTTTLTISGVQAEDEADYYCGSWDSNTDSGIFGGGTKLTVLG	
